The values that follow come from publication PMC10912661 (Scientific Reports, 2024).

Holding throughout (details): both partners purified
The target of assay [1] is T1, human hemoglobin (bought powder, gel-filtered, for in vitro assays) (human, UniProt P69905 1-142; P68871 1-147). As to the kind of experiment: SPR. (SPR reads the build-up and loss of mass on a sensor chip optically.)
Assay [2] concerns the target T1, human hemoglobin (bought powder, …). Briefly: SPR. This is another data set of the same source.
For assay [3], the target named is human hemoglobin purified from donor blood (carboxyhemoglobin form, for crystallography) (human, UniProt P69905 1-142; P68871 1-147). Briefly: crystal structure.
In assay [4] the target is T2, β-chain of human hemoglobin (in the Hb tetramer of the crystal) (human, UniProt P68871 1-147).
T2 construct: also called β-chain of Hb; chain ß; source: purified from human blood of a single healthy donor, as part of Hb
Briefly: crystal structure.

T1 sequence (P69905 whole entry, chain 1 of 2): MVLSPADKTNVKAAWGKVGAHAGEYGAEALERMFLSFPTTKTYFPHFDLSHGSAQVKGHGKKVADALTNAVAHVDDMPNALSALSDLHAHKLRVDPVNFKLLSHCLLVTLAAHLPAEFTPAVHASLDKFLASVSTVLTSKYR
T1 sequence (P68871 whole entry, chain 2 of 2): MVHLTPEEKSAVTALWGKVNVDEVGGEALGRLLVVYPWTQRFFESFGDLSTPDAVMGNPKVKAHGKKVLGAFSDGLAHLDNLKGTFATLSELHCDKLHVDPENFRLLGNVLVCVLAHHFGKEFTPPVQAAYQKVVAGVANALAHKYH
Chain of human hemoglobin purified from donor blood (carboxyhemoglobin form, for crystallography) (P69905 whole entry, chain 1 of 2): as the sequence (P69905 whole entry, chain 1 of 2) above
Chain of human hemoglobin purified from donor blood (carboxyhemoglobin form, for crystallography) (P68871 whole entry, chain 2 of 2): as the sequence (P68871 whole entry, chain 2 of 2) above
T2 sequence (P68871 whole entry): as the sequence (P68871 whole entry, chain 2 of 2) above

B1: hemoglobin-interacting domain 2 (HID2) of Shr, residues 169-294, wild type (domain or fragment)
chain: SGKNTANLSLITKLSQEDGAILFPEIDRYSDNKQIKALTQQITKVTVNGTVYKDLISDSVKDTNGWVSNMTGLHLGTKAFKDGENTIVISSKGFEDVTITVTKKDGQIHFVSAKQKQHVTAEDRQS
notes: also called WT; WT HID2; source: E. coli BL21(DE3), pET28b, purified (Ni-NTA, TEV cleavage, second Ni column, SEC Superdex-75)
For B1, the Kd (commonly the constant that tells how readily two partners part at equilibrium) in assay [1] amounted to 25 µM. In assay [2], binding was put at a Kd of 22 ± 0.12 µM; the koff (in general, the rate constant with which the complex falls apart) came out at 0.65 ± 0.025 s⁻¹; the kon – broadly, the second-order rate constant of association – was determined as 30000 ± 160 M⁻¹ s⁻¹. Further, the stoichiometry N (commonly a count of units in the complex or per binding partner) in assay [3] stood at 3 HID2 per Hb tetramer. Besides, in assay [4], the binding result was “binds”.
